In IntAct's records for PubMed 12628189:

B1: Protein TEM1 (Saccharomyces cerevisiae), P38987 (parent)
chain: MATPSTGANNSIPAVRNQVEVQVGLVGDAQVGKTSLMVKYVQNIYDKEYTQTLGVNFLKRKVSIRSTDIIFSIMDLGGQREFINMLPIATVGSSVIIFLFDLTRPETLSSIKEWYRQAYGLNDSAIPILVGTKYDLLIDLDPEYQEQISRTSMKYAQVMNAPLIFCSTAKSINIQKIFKIALAKIFNLTLTIPEINEIGDPLLIYKHLGGQQHRHHNKSQDRKSHNIRKPSSSPSSKAPSPGVNT
partner: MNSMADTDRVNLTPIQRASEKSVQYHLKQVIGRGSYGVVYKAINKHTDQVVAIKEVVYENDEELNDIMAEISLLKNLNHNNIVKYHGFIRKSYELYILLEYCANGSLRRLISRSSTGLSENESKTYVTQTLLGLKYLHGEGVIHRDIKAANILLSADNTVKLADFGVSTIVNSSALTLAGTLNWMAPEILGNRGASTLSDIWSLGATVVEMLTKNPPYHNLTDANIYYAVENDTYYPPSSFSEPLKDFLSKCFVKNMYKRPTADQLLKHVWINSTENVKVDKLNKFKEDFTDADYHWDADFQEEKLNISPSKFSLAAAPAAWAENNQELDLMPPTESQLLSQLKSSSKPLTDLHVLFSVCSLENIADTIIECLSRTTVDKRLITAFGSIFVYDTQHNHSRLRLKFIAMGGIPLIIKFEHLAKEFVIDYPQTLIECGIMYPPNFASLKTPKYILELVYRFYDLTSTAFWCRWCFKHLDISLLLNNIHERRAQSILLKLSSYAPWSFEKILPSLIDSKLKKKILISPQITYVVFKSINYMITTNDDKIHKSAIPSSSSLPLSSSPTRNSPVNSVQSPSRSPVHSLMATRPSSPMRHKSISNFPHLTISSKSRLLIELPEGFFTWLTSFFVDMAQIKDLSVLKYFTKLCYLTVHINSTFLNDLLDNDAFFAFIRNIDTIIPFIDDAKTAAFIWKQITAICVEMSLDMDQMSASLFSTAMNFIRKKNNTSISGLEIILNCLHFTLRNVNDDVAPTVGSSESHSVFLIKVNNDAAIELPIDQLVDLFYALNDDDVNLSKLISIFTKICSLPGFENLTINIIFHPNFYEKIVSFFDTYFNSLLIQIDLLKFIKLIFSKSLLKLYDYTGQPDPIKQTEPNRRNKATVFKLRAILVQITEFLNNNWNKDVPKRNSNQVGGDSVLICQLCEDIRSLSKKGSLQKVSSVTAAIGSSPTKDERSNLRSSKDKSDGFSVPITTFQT
B2: Protein TEM1 (Saccharomyces cerevisiae), P38987 (parent)
chain: B1 chain
partner: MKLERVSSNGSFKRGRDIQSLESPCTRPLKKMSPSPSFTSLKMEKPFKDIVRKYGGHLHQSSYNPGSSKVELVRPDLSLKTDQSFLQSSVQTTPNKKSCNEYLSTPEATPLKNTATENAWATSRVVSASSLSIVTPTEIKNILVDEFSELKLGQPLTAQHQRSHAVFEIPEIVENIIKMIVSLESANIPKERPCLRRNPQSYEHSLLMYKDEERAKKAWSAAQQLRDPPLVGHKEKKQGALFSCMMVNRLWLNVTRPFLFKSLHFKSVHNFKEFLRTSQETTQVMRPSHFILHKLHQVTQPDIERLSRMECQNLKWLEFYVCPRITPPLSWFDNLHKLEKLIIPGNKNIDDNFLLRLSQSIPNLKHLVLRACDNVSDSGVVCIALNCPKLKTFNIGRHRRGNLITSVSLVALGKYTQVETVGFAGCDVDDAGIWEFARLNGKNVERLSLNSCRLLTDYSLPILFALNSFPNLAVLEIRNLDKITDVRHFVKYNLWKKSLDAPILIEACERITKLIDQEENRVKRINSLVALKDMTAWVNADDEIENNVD

Variants of: B1
Conditions: with cdc15_yeast CDC15, P27636

Row | Variant | effect of a mutation on the interaction
1 | D135A | disrupting interaction
2 | T34A | disrupting interaction

Variants of: B2
Conditions: with amn1_yeast AMN1, P38285

Row | Variant | effect of a mutation on the interaction
3 | T34A | decreasing interaction
4 | D135A | disrupting interaction
